Experimental findings from patent publication US11905559B2, “Materials and methods for controlling gene expression” (priority 2016, dated 2024) are described below.

“And” between values parts separate entries of the source, which are not always exact repeats. Identical values can stand only once.

Data set [1] is described as follows: Isothermal titration calorimetry (ITC). The format is binding. The following applies: 30° C., 50 mM K^+ Hepes pH 7.5, 100 mM KCl, 10 mM MgCl2, read-out: KD for guanine. The method in brief: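 Guanine (10 μM, syringe) titrated into in vitro transcribed, PAGE-purified G-aptamer or mutant RNA (1 μM, cell) in 50 mM K+ Hepes pH 7.5, 100 mM KCl, 10 mM MgCl2 at 30 °C; 16 × 2.5 μl injections, 120 s apart. Single-site fit gave KA, n, ΔH; KD and ΔG derived; mean ± SD of three experiments.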
Background: Isothermal titration calorimetry measures the heat released or taken up as one component is titrated into another.

Data set [2] can be described thus: Constant-force (CF) single-molecule optical tweezers folding assay of guanine-aptamer RNAs in guanine buffer. The format is physicochemical. The conditions noted are these: 3 mM Mg^2+; for Folding rate kf / Transition distance ΔX / Unfolding rate ku / ΔG (0): 1 uM G; for ΔG (0): zero force. Summed up:
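Single RNA aptamer tethered between beads via ~550 nt handles in dual-beam optical tweezers (trap stiffness 0.04-0.06 pN/nm), held at preset force (±0.15 pN) under feedback, extension recorded at 4-40 kHz. 25±0.5 °C; 10 mM Tris-HCl pH 7.5, 250 mM NaCl, 3 mM MgCl2 plus guanine; some mutants 5 mM Mg2+.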

[3] abbreviates: transition BA (P1 folding), F 8.0 pN.
The mark [4] stands for this setting: transition C′B (L2-L3 folding), F 8.0 pN.
The mark [5] stands for this setting: transition DC (P3 folding), F 12.0 pN.
Where [6] appears, read: transition ED (P2 folding), F 13.5 pN.

B1: m7: m7 mutant guanine sensing aptamer RNA (SEQ ID NO: 8); U25C in J1/2 (nucleic acid)
chain: CACUCAUAUAACCGCGUGGAUAUGGCACGCAAGUUUCUACCGGGCACCGUAAAUGUCCGACUAUGGGUG
modifications: RNA, backbone and methylation of C not given here
Broadly, the Kd is a measure of binding affinity in units of concentration. Regarding B1, in data set [1], the Kd worked out at 16.9 ± 1 nM. The “Equilibrium force F^eq” value is reported as 7.4 ± 0.2 pN in data set [2] (transition BA (P1 folding), 1 uM G (rates at 8.0 pN)); 8.1 ± 0.4 pN in data set [2] (transition C′B (L2-L3 folding), 1 uM G (rates at 8.0 pN)); 11.8 ± 0.05 pN in data set [2] (transition DC (P3 folding), 1 uM G (rates at 12.0 pN)); 13.3 ± 0.05 pN in data set [2] (transition ED (P2 folding), 1 uM G (rates at 13.5 pN)). Also, the Folding rate kf in data set [2] (setting [3]) was 0.5 ± 0.08 s⁻¹; in data set [2] (setting [4]), 0.9 ± 0.2 s⁻¹; in data set [2] (setting [5]), 16.6 ± 0.5 s⁻¹; in data set [2] (setting [6]) it was 10.0 ± 0.3 s⁻¹. For the same molecule, the “Transition distance ΔX” value in data set [2] (setting [3]) came out at 9.6 ± 0.3 nm; in data set [2] (setting [4]), 3.5 ± 0.2 nm; in data set [2] (setting [5]) it was 7.6 ± 0.2 nm; in data set [2] (setting [6]), 7.1 ± 0.3 nm. For the same molecule, the Unfolding rate ku in data set [2] (setting [3]) was 1.7 ± 0.4 s⁻¹; in data set [2] (setting [4]) it was 1.2 ± 0.2 s⁻¹; in data set [2] (setting [5]), 28.3 ± 1.0 s⁻¹; in data set [2] (setting [6]), 20.1 ± 0.5 s⁻¹. Besides, the “ΔG (0)” value is −11.8 kBT and −11.8 ± 0.6 kBT in data set [2] (transition BA (P1 folding), from data at 8.0 pN); −6.5 kBT and −6.5 ± 0.5 kBT in data set [2] (transition C′B (L2-L3 folding), from data at 8.0 pN); −14.8 ± 0.6 kBT in data set [2] (transition DC (P3 folding), from data at 12.0 pN); −15.8 ± 1.0 kBT in data set [2] (transition ED (P2 folding), from data at 13.5 pN).
